The target in assay [1] is T1, human carcinoembryonic antigen (hCEA) expressed on cells (human, UniProt P06731 35-685).
T1 sequence (looked up): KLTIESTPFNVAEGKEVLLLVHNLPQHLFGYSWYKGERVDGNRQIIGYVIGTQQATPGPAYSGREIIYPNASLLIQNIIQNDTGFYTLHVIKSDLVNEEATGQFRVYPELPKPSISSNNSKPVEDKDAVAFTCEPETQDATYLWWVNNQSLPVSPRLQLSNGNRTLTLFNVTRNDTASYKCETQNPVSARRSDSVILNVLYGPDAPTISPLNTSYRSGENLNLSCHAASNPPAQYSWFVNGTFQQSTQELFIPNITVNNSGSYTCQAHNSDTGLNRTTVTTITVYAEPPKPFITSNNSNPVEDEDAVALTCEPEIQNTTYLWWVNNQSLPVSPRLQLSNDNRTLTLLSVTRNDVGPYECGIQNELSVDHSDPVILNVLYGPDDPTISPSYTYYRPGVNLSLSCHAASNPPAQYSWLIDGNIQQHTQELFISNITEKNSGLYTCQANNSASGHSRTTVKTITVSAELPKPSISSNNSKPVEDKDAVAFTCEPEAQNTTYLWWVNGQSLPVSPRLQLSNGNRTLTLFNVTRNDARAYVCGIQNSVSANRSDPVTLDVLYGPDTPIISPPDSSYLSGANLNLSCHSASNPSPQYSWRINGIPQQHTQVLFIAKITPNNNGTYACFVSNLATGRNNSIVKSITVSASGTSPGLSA
The assay can be described thus: cell-based or functional assay.

Assay [2] deals with T1, human carcinoembryonic antigen (hCEA) …. The assay can be described thus: cell binding for one hour at 5x10^3 v.p. per cell, hexon qPCR; hCEA up-regulated by irradiation. A general note: In qPCR the cycle at which signal appears reflects the starting amount.
The target of assay [3] is T2, purified human carcinoembryonic antigen (hCEA) protein (human, UniProt P06731 35-685, limits assumed).
T2 construct: Bought protein coated on ELISA plates or used in solution to pre-incubate the virus; also called human CEA protein; recombinant hCEA protein (ab742)
T2 sequence (looked up): T1 sequence (looked up)
The assay can be described thus: dilution ELISA, hCEA coated on plate, VHH detected with HRP/anti-E-tag mAb. For orientation: An ELISA detects its analyte on a solid surface through an enzyme-linked reagent.
Description: Nunc Maxisorb plates (Nunc) were coated overnight at 4° C. with 1 μg/ml human CEA protein (Abeam, Cambridge, Mass.). The plates were blocked in binding buffer containing 5% w/v non-fat milk in Tris-buffered saline (TBS). […] Plates were incubated at 25° C. for one hour and then washed three times with TBS. Bound VHHs were detected with HRP/anti-E-tag mAb (Bethyl Laboratories, Montgomery, Tex.).
The plates for enzyme-linked immunosorbent assay were coated with purified hCEA protein and then purified VHH were added in wells at various concentrations. (FIG. 2A) Bound VHHs were detected with HRP/anti-E-tag mAb. […] The EC₅₀ values are the VHH concentration that produced 50% maximum signal on the ELISAs.

Assay [4] concerns the target T1, human carcinoembryonic antigen (hCEA) …. The assay can be described thus: cell binding for one hour at 1x10^3 vp per cell, Ad hexon gene copy number per 20 ng total DNA by qPCR.
The target in assay [5] is T2, purified human carcinoembryonic antigen …. The assay can be described thus: ELISA, hCEA coated on plate, virions detected with anti-adenovirus goat Ab.
Assay [6] has as its target T1, human carcinoembryonic antigen (hCEA) …. The assay can be described thus: cell binding for one hour, Ad hexon gene copy number by qPCR, MC38CEA against MC38 cells.

The text below walks through data of US20170044269A1 (WASHINGTON UNIVERSITY, published 2017).

As a reminder, the EC50 is the midpoint of the concentration-response curve. Read a high EC50 as lower potency in that assay.

B1: AdB2Luc (Ad5 vector displaying anti-hCEA fiber-fibritin-VHH chimera, clone B2) (other)
chain: MKRARPSEDTFNPVYPYDTETGPPTVPFLTPPFVSPNGFQESPPGVLSLRLSEPLVTSNGMLALKMGNGLSLDEAGNLTSQNVYSRLNEIDTKQTTVESDISAIKTSIGYPGNNSIITSVNTNTDNIASINLELNQSGGIKQRLTVIETSIGSDDIPSSIKGQIKDNTTSIESLNGIVGENTSSGLRANVSWLNQIVGTDSSGGQPSPPGSLLNRVSTIETSVSGLNNAVQNLQVEIGNNSAGIKGQVVALNTLVNGTNPNGSTVEERGLTNSIKANETNIASVTQEVNTAKGNISSLQGDVQALQEAGYIPEAPRDGQAYVRKDGEWVFLSTFLSPAGGGGSQVQLVETGGGLVQPGGSLRLSCAASESIFSTYAMGWYRQAPGKQRELVAAITTNDIANYADSVKGRFTISRDNAKNTVYLQMNSLNPEDTAVYYCNAIFPPYNYWGQGTQVTVSSEPKTPKPQ
notes: domain: N-terminal Ad5 fiber tail region;domain: entire fibritin protein with the trimerizing foldon domain; The chimeric fiber stood in the assay on whole purified Ad5 virus particles (other capsid proteins present); also called FF-VHH B2; FF-B2
With B1, the “reporter gene (Luc) expression in hCEA-positive MC38CEA cells in comparison with MC38 cells” value in assay [1] is greater than 55 fold. In assay [2], the “fold increase of Ad hexon gene copy number in irradiated (6 Gy) against mock-treated A549 cells” value stood at 5.1 fold, the “fold increase of Ad hexon gene copy number in irradiated (6 Gy) against mock-treated LS174T cells” value was determined as 3.2 fold and the “fold increase of Ad hexon gene copy number in irradiated (6 Gy) against mock-treated PC-3 cells” value is 2.8 fold.

B2: JJB-D1 (VHH)
VHH: QVQLVESGGLVQAGGSLRPSCAASGSIFLQNAMGWYRQVPGKQRELVAAITSVDSTNYADSVKGRFTISRDNAKNTVYLQMNSLKPEDTAVYYCNAPWNSDYHWGKGTLVTVSS
notes: Alpaca anti-hCEA VHH, expressed and purified as a thioredoxin fusion protein; not shown: Thioredoxin fusion partner, E-tag and any linkers
In assay [3], B2 gave a half-maximal effective concentration (EC50) of roughly 1 nM.

B3: JJB-B2 (VHH)
VHH: QVQLVETGGGLVQPGGSLRLSCAASESIFSTYAMGWYRQAPGKQRELVAAITTNDIANYADSVKGRFTISRDNAKNTVYLQMNSLNPEDTAVYYCNAIFPPYNYWGQGTQVTVSS
notes: Alpaca anti-hCEA VHH, expressed and purified as a thioredoxin fusion protein; also called clone B2; B2 sdAb; not shown: Thioredoxin fusion partner, E-tag and any linkers
In turn, B3 gave an EC50 in assay [3] of roughly 0.2 nM.

B4: JJB-B5 (VHH)
VHH: QVQLVETGGGLVQPGGSLRPSCTASGSIFSIYAMGWYRQASGKQRELVALITRDEVFNYADSVKGRFTISRDNAKDTVYLQMNSLKPEDTAVYYCWVETVNDHYNSGVEDYWGQGTQVTVSS
notes: as for B2
B4: in assay [3], the EC50 was roughly 50 nM.

B5: AdC17Luc (Ad5 vector displaying anti-hCEA fiber-fibritin-VHH chimera, clone C17) (other)
chain: MKRARPSEDTFNPVYPYDTETGPPTVPFLTPPFVSPNGFQESPPGVLSLRLSEPLVTSNGMLALKMGNGLSLDEAGNLTSQNVYSRLNEIDTKQTTVESDISAIKTSIGYPGNNSIITSVNTNTDNIASINLELNQSGGIKQRLTVIETSIGSDDIPSSIKGQIKDNTTSIESLNGIVGENTSSGLRANVSWLNQIVGTDSSGGQPSPPGSLLNRVSTIETSVSGLNNAVQNLQVEIGNNSAGIKGQVVALNTLVNGTNPNGSTVEERGLTNSIKANETNIASVTQEVNTAKGNISSLQGDVQALQEAGYIPEAPRDGQAYVRKDGEWVFLSTFLSPAGGGGSEVQLVESGGGFVQAGESLTLSCTSSTLSCTSSTLTFTPYRMAWYRQAPGKQRDLVADISSGDGRTTNYADFAKGRFTISRDNIKNTVFLRMTNLKPEDTAVYYCNTFVSFVGIARSWGQGTQVTVSSEP
As for B5, the “Luc expression in hCEA+ cells (MC38CEA against MC38)” value in assay [1] was roughly 4 fold.

B6: Ad.CXCR4E1.B2 (conditionally replicative Ad5 with fiber-fibritin chimera expressing anti-hCEA sdAb clone B2) (other)
chain: MKRARPSEDTFNPVYPYDTETGPPTVPFLTPPFVSPNGFQESPPGVLSLRLSEPLVTSNGMLALKMGNGLSLDEAGNLTSQNVYSRLNEIDTKQTTVESDISAIKTSIGYPGNNSIITSVNTNTDNIASINLELNQSGGIKQRLTVIETSIGSDDIPSSIKGQIKDNTTSIESLNGIVGENTSSGLRANVSWLNQIVGTDSSGGQPSPPGSLLNRVSTIETSVSGLNNAVQNLQVEIGNNSAGIKGQVVALNTLVNGTNPNGSTVEERGLTNSIKANETNIASVTQEVNTAKGNISSLQGDVQALQEAGYIPEAPRDGQAYVRKDGEWVFLSTFLSPAGGGSQVQLVETGGGLVQPGGSLRLSCAASESIFSTYAMGWYRQAPGKQRELVAAITTNDIANYADSVKGRFTISRDNAKNTVYLQMNSLNPEDTAVYYCNAIFPPYNYWGQGTQVTVSSEPKTPKPQ
notes: domain: N-terminal Ad5 fiber tail region;domain: trimerizing domain of the fibritin protein; Chimeric fiber on whole purified virus particles; also called FFB2; fiber-fibritin-B2
For B6, in assay [4], the “fold binding to hCEA(+) MC38CEA cells against hCEA(-) MC38 cells” value is roughly 25 fold.

B7: AdVHH122Luc (Ad5 vector displaying anti-EGFR fiber-fibritin-VHH chimera, clone VHH122) (other)
chain: MKRARPSEDTFNPVYPYDTETGPPTVPFLTPPFVSPNGFQESPPGVLSLRLSEPLVTSNGMLALKMGNGLSLDEAGNLTSQNVYSRLNEIDTKQTTVESDISAIKTSIGYPGNNSIITSVNTNTDNIASINLELNQSGGIKQRLTVIETSIGSDDIPSSIKGQIKDNTTSIESLNGIVGENTSSGLRANVSWLNQIVGTDSSGGQPSPPGSLLNRVSTIETSVSGLNNAVQNLQVEIGNNSAGIKGQVVALNTLVNGTNPNGSTVEERGLTNSIKANETNIASVTQEVNTAKGNISSLQGDVQALQEAGYIPEAPRDGQAYVRKDGEWVFLSTFLSPAGGGGSEVQLQESGGGLVQAGDSLRLSCLVSGRSFNSYTMGWFRQAPGKEREFVAAILWSGPTTYYADSVKGRFTISRDNAKNTVYLQMNSLKPEDTAVYYCAAALGVLVLAPGNVYSYWGQGTQVTVSS
notes: domain: N-terminal Ad5 fiber tail region;domain: entire fibritin protein with the trimerizing foldon domain; Isogenic control vector; chimeric fiber on whole purified Ad5 virus particles; also called FF-VHH122
For B7, in assay [5], the binding result is on record as “no binding”.

B8: Ad5Luc (Ad5 vector with wild-type Ad5 fiber) (other)
chain: MKRARPSEDTFNPVYPYDTETGPPTVPFLTPPFVSPNGFQESPPGVLSLRLSEPLVTSNGMLALKMGNGLSLDEAGNLTSQNVTTVSPPLKKTKSNINLEISAPLTVTSEALTVAAAAPLMVAGNTLTMQSQAPLTVHDSKLSIATQGPLTVSEGKLALQTSGPLTTTDSSTLTITASPPLTTATGSLGIDLKEPIYTQNGKLGLKYGAPLHVTDDLNTLTVATGPGVTINNTSLQTKVTGALGFDSQGNMQLNVAGGLRIDSQNRRLILDVSYPFDAQNQLNLRLGQGPLFINSAHNLDINYNKGLYLFTASNNSKKLEVNLSTAKGLMFDATAIAINAGDGLEFGSPNAPNTNPLKTKIGHGLEFDSNKAMVPKLGTGLSFDSTGAITVGNKNNDKLTLWTTPAPSPNCRLNAEKDAKLTLVLTKCGSQILATVSVLAVKGSLAPISGTVQSAHLIIRFDENGVLLNNSFLDPEYWNFRNGDLTEGTAYTNAVGFMPNLSAYPKSHGKTAKSNIVSQVYLNGDKTKPVTLTITLNGTQETGDTTPSAYSMSFSWDWSGHNYINEIFATSSYTFSYIAQE
notes: Wild-type fiber on whole purified Ad5 virus particles; control vector; also called wild-type Ad5Luc; fiber unmodified control Ad5Luc vector
As to B8, in assay [5], the binding result is listed as “no binding”.

B9: Ad.CXCR4E1 (conditionally replicative Ad5 with wild-type Ad5 fiber) (other)
chain: B8 chain
notes: Wild-type fiber on whole purified virus particles; control vector; also called control CRAd
As to B9, in assay [6], the binding result is “no binding (tested: 1x10^3 vp per cell)”.

B10: JJB-A3 (VHH)
VHH: QVQLVETGGGLVQPGGSLRLSCAASGRISDINAMGWYRQAPGKQRELVAAITSVGSNYVDSVKGRFTISKDNAKNTVYLQMYSLNPEDTAVYYCNTQCGTWLVCDGRDQWGKGTLVTVSS
notes: Alpaca anti-hCEA VHH, expressed and purified as a thioredoxin fusion protein; the methods name only JJB-A3; not shown: Thioredoxin fusion partner, E-tag and any linkers
B10: the EC50 in assay [3] was roughly 0.15 nM.
